In paper doi:10.1101/517771:

Target: FLAG-BLM (Bloom's Syndrome helicase) (human) (UniProt P54132)
Chain of UniProt P54132 (P54132 whole entry): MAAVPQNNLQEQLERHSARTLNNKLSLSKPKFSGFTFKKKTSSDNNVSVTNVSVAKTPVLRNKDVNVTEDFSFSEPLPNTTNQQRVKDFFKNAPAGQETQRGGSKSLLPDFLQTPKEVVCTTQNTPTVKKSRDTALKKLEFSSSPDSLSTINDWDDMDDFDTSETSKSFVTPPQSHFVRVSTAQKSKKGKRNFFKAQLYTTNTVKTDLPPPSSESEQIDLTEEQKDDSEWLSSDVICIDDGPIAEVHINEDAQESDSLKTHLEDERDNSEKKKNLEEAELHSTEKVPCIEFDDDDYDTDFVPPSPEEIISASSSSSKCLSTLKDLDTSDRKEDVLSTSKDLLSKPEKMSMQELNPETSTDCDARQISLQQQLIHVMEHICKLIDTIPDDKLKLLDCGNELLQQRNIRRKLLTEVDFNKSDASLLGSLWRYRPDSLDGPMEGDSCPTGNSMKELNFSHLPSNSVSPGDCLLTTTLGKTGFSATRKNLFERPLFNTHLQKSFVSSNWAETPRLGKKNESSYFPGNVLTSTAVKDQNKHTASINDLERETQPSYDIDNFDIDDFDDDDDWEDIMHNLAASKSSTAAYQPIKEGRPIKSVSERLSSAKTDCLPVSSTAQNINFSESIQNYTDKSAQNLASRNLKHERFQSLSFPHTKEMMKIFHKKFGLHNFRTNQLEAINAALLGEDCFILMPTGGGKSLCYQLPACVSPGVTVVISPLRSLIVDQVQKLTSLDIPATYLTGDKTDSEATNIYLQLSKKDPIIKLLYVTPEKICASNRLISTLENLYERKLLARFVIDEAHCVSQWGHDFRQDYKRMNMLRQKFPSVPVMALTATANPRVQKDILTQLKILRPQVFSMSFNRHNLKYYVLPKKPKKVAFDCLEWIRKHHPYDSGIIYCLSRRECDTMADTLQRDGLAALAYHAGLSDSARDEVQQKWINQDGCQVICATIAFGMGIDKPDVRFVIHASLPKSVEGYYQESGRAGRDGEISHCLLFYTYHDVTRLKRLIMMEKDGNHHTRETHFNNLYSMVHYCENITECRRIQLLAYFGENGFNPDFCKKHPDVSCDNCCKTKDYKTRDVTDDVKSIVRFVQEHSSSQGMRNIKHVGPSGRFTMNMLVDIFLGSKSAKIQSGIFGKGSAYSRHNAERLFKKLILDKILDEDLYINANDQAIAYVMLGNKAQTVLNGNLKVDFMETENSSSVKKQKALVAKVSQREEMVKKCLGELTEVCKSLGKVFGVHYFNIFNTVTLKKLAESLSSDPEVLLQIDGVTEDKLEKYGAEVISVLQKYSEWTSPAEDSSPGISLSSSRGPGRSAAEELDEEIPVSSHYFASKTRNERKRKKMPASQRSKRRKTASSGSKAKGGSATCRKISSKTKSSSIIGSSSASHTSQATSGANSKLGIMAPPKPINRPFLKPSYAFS

fold decrease in BLM/EXO1 resection processivity after addition of pRPA: 3 fold | fraction of BLM/DNA2 molecules that stopped resecting DNA upon addition of pRPA: 30%
Substance: phosphorylated human RPA (pRPA) (from UniProt P27694 1-616; P15927 1-270) (complex)
